Experimental data from PMC9376891 (Nature Communications, 2022).

B1: VSV-M-NTE (peptide)
peptide: DEMDTHDPNQLRY
B2: SARS-CoV ORF6 C3 peptide (peptide)
peptide: YSELDDEEPMELDYP
B3: Rae1(31-368)-Nup98(157-213) heterodimer (complex)
chain 1: DIEVTSSPDDSIGCLSFSPPTLPGNFLIAGSWANDVRCWEVQDSGQTIPKAQQMHTGPVLDVCWSDDGSKVFTASCDKTAKMWDLSSNQAIQIAQHDAPVKTIHWIKAPNYSCVMTGSWDKTLKFWDTRSSNPMMVLQLPERCYCADVIYPMAVVATAERGLIVYQLENQPSEFRRIESPLKHQHRCVAIFKDKQNKPTGFALGSIEGRVAIHYINPPNPAKDNFTFKCHRSNGTNTSAPQDIYAVNGIAFHPVHGTLATVGSDGRFSFWDKDARTKLKTSEQLDQPISACCFNHNGNIFAYASSYDWSKGHEFYNPQKKNYIFLRNAAEELKPRNKK
chain 2: not shown
notes: also called Rae1-Nup98; Rae1-Nup98 complex
B4: SARS-CoV ORF6-YP (peptide)
peptide: YSELDDEEPMELD
B5: SARS-CoV ORF6 C3 (peptide)
peptide: YSELDDEEPMELDYP
B6: SARS-CoV ORF6 C3 -YP (peptide)
peptide: YSELDDEEPMELD
B7: SARS-CoV-2 ORF6 C1 (peptide)
peptide: SLTENKYSQLDEEQPMEID
notes: source: synthetic peptide
B8: SARS-CoV-2 ORF6 C3 peptide (peptide)
peptide: YSQLDEEQPMEID
notes: source: synthetic peptide
B9: SARS-CoV-2 ORF6 C4 (peptide)
peptide: DEEQPMEID
notes: source: synthetic peptide
B10: MHV-68 ORF10 CTT peptide (peptide)
chain: RAITDGGESPMEWQTL
B11: SARS-CoV-2 ORF6 C3 lacking the last three residues 59-EID-61 but retaining M58 (peptide)
peptide: YSQLDEEQPM
notes: source: synthetic peptide
B12: SARS-CoV-2 ORF6 C3 (peptide)
peptide: YSQLDEEQPMEID
notes: source: synthetic peptide
B13: SARS-CoV-2- ORF6-EID (peptide)
peptide: YSQLDEEQPM
notes: source: synthetic peptide
B14: SARS-CoV-2 ORF6 C2 (peptide)
peptide: ENKYSQLDEEQPMEID
notes: source: synthetic peptide

Experiments:
Test in all cases: ITC
Conditions in all cases: both partners purified
[1] = biological target: B3
Target sequence in this assay (P52948 157-213, chain 2 of 2, one chain of several): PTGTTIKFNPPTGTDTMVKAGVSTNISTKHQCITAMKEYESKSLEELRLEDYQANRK

[2] = biological target: T1, Rae1(31-368)-Nup98(157-213) heterodimer (human, UniProt P78406 31-368; P52948 157-213); remark: listed apart in the source
T1 construct: also called Rae1-Nup98; Rae1-Nup98 complex
T1 sequence (P52948 157-213, chain 2 of 2, one chain of several): as above

MHV68-ORF10-CTT = biological target: T2, MHV68-ORF10-CTT (murine gammaherpesvirus 68)
T2 construct: source: synthetic peptide

[3] = biological target: B3; remark: listed apart in the source
Target sequence in this assay (P52948 157-213, chain 2 of 2, one chain of several): as above

T2 sequence (P52948 157-213): as the sequence (P52948 157-213, chain 2 of 2, one chain of several) above

B1
Ka [1]: 8550 M⁻¹ | stoichiometry N [1]: 0.304

B2
Kd [2]: 370 nM

B3
Ka (MHV68-ORF10-CTT): 175000 M⁻¹

B4
Ka [1]: 8.89e+06 M⁻¹ | stoichiometry N [1]: 0.62

B5
Ka [1]: 2.69e+06 M⁻¹ | stoichiometry N [1]: 0.63

B6
Kd [2]: 110 nM

B7
Ka [3]: 2.62e+06 M⁻¹ | Kd [3]: 380 nM | stoichiometry N [3]: 1.06

B8
Kd [2]: 240 nM

B9
Ka [3]: 2.25e+06 M⁻¹ | Kd [3]: 440 nM | stoichiometry N [3]: 0.82

B10
Kd [2]: 5710 nM

B11
Kd [2]: 87700 nM

B12
Ka [3]: 4.12e+06 M⁻¹ | stoichiometry N [3]: 0.9

B13
Ka [1]: 11400 M⁻¹ | stoichiometry N [1]: 1.01

B14
Ka [3]: 3.58e+06 M⁻¹ | Kd [3]: 270 nM | stoichiometry N [3]: 1.17
